Measurements published in the supplement of paper PMC12042874.
± gives the uncertainty stated by the source.

Experiment: amyloid nucleation score (Sup35N fusion, yeast selection) (log enrichment); library NNK2; higher = more nucleation; inactive = no reads after selection
Summary of the method: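 Yeast lacking psi expressed peptides of 20 random codons fused to Sup35N, received 100 μM copper sulfate for 24 hours, and were then grown for 7 days at 30°C on medium lacking adenine and uracil. Illumina sequencing of input and output plasmid inserts provided the reads. Nucleation scores are DiMSum log enrichments of output over input, centred on the mode of non-aggregating sequences. Any sequence with under 100 input reads was excluded.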

Substance | amyloid nucleation score
CMRVRCFSILNSAFCKCEMA | -1.62 ± 1.1
CMSIHCVTTSRVLKFNSKWY | 3.11 ± 0.15
CNCQYHSVWIT | 0.392 ± 0.26
CNIVPYRPINGWIPDVLLED | -0.275 ± 0.79
CNNQEMPTSGWMSCFSCALC | 1.48 ± 0.32
CNRYWGRPHGYFFSSSMCMV | -1.28 ± 0.75
CNSQVVWFFRI | 4.69 ± 0.062
CNSRNMVTGISM | 0.034 ± 1.1
CNVAHRLRVRSVAK | 0.789 ± 0.47
CNVDYLSDVYYHVPMQDQSL | 0.368 ± 0.48
CNWLYF | 0.395 ± 0.8
CNYMPVPRPSMVMSFVSVTV | inactive
CPEDVAEFMCRALFRSISIG | 0.45 ± 0.74
CPVAQYQG | -0.308 ± 0.21
CRAHMCLQFNYWTRVMNTPT | 6.809 ± 0.068
CRFALSMYNWVLYNRNFQLI | -0.363 ± 1.1
CRFLRA | -0.051 ± 0.79
CRHMSDHWKSSR | -0.562 ± 0.54
CRISQTFF | 1.82 ± 0.15
CRKYKLRHRADDCSMYCTRL | 3.33 ± 0.14
CRLGLLF | 0.767 ± 0.66
CRMNDNSDWVRYAGHKAMAS | 1.2 ± 0.27

Substance | amyloid nucleation score
CRSHVAGFDAHTNILLKPIC | -0.346 ± 0.64
CRWTASAIHARGRVSDRMRD | 0.05 ± 0.29
CRYYSNPAPSPRLVN | inactive
CSFDVYNSDCTTHDDIINNF | -1.43 ± 1
CSFSADCVSRSGGRSFSP | -0.834 ± 0.63
CSFVLVFVIIQ | 3.49 ± 0.12
CSIGLRCGNVMLPTEWVSNC | -0.763 ± 0.32
CSPCFLSCGPYNNGPE | 7.537 ± 0.074
CSSENLSLLIYSIKVGNGF | 3.28 ± 0.12
CSWLLTH | -0.461 ± 0.48
CSYVDRTLGSNLWVVRSNSQ | 0.737 ± 0.51
CSYVNRLWVDSSVGHEEDAG | inactive
CTAHYYCQGCWTSRMLNLTA | -0.116 ± 0.47
CTAYYCDVSLNYVVRYNFPL | inactive
CTFKFMAVQFCG | 5.46 ± 0.073
CTFSRMSVFACILANQSVFY | 7.861 ± 0.038
CTHHKCVWGIWSTFSVDSEL | -0.288 ± 1.1
CTHWLDPDFVL | -0.666 ± 0.79
CTIVYF | 1.13 ± 0.27
CTLLFTLSYSVS | 4.245 ± 0.037
CTLVFKGLGCKSVELGGTFC | -0.564 ± 0.61
CTMWVDVCLSCDHMRYDNGG | 5.96 ± 0.093

Substance | amyloid nucleation score
CTSLLI | -0.545 ± 0.48
CTSLRYFCARFELLSAHSKW | 0.199 ± 0.4
CTSYTEDFLWCFHNVTWKVR | 0.105 ± 0.8
CVAVDDD | 0.624 ± 0.46
CVFAHFCCLFASMMPCKFSW | -0.127 ± 1
CVFKVVPLVL | 0.005 ± 1
CVFLHSALSQYRVIIVTWYP | -0.237 ± 0.63
CVFRHTVIYGLGAGW | 2.65 ± 0.14
CVHIKEVLAWLDRCGLGYVW | 0.662 ± 0.81
CVILDWSVVCFMELVINSRS | 3.21 ± 0.065
CVKDQSSRRRWLIYWAHSLS | -0.145 ± 0.76
CVLMTALNLRKRSVGMPFCW | 4.67 ± 0.077
CVLSLNTGTASWITHVWKLY | 0.349 ± 0.5
CVNYYVYANHRRISYWW | -0.337 ± 1.1
CVVEQALLLWN | -0.243 ± 0.79
CVVTSVIENGFFLQFIMFYQ | inactive
CVYRASIVRSRSNYEAVWYS | 0.341 ± 0.24
CVYWWASGE | inactive
CWCSLRRFTMLCNMRMNWDN | 1.91 ± 0.086
CWVAYERSHTFRPKNQFFMH | 1.02 ± 0.53
CYFSLQNSKDMRDLELDAIN | -1.46 ± 0.55
CYGRIM | 1.74 ± 0.099

Substance | amyloid nucleation score
CYNLCCLPFCGVNLMFWLQV | 7.992 ± 0.033
CYRHVLFKATLKWCNFAVFI | 7.383 ± 0.046
CYRVVTLFNFK | 6.178 ± 0.029
CYSLWRFEQMKLGMKLRGMT | 0.003 ± 0.43
DAAEISGLCLYDFLTGDLEQ | 2.27 ± 0.12
DAHTMIGRYTDSSLRHRTWV | 1.05 ± 0.3
DALQSSFTTLLLYNAIEDVY | -0.317 ± 0.35
DAWRFSTNSLHSTAYYYYFL | 5.781 ± 0.043
DCARERYKLYNRLHWPSLSS | 0.474 ± 0.26
DCDVSVNSVYITVKSAICAV | 0.767 ± 0.66
DCFSYSHLRGACNVECLFYP | -0.645 ± 1.1
DCISRY | 1 ± 0.68
DCLIRIVQSTGVYVRWQGRA | 4.35 ± 0.086
DCLNRLY | 0.138 ± 0.76
DCWWYRLDSMYDLTYLGIGR | -1.03 ± 0.63
DDHLCSFLRFFTNKRKRA | 4.67 ± 0.09
DDRCATSNIHLLLHPLCTYL | 0.754 ± 0.37
DDSNCNNHGRVDDKVR | 4.9 ± 0.038
DDVKDNVYGSVEALKPRSG | 0.467 ± 0.17
DDYRMVIVVT | -0.307 ± 0.33
